In paper PMC2185549:
Each block holds one substance with its values, some of them ahead of it.

Tests used:
[1] = molecular target: Sec61 complex of C30-PK-RM (chymotrypsin 30 μg/ml) (canine (endogenous in canine pancreas microsomes)) (UniProt P38377); test: radioligand binding
[2] = molecular target: Sec61 complex of T3-PK-RM (trypsin 3 μg/ml) (canine (endogenous in canine pancreas microsomes)) (UniProt P38377); test: radioligand binding
[3] = molecular target: Sec61 complex of C1-PK-RM (chymotrypsin 1 μg/ml) (canine (endogenous in canine pancreas microsomes)) (UniProt P38377); test: radioligand binding
[4] = molecular target: Sec61 complex of Th50-PK-RM (thermolysin 50 μg/ml, on ice) (canine (endogenous in canine pancreas microsomes)) (UniProt P38377); test: radioligand binding
[5] = molecular target: Sec61 complex of C5-PK-RM (chymotrypsin 5 μg/ml) (canine (endogenous in canine pancreas microsomes)) (UniProt P38377); test: radioligand binding
[6] = molecular target: Sec61 complex of C30-PK-RM (chymotrypsin 30 μg/ml) (canine (endogenous in canine pancreas microsomes)) (UniProt P38377); test: SEC
[7] = molecular target: Sec61 complex of C5-PK-RM (chymotrypsin 5 μg/ml) (canine (endogenous in canine pancreas microsomes)) (UniProt P38377); test: SEC
[8] = molecular target: Sec61 complex of T10-PK-RM (trypsin 10 μg/ml) (canine (endogenous in canine pancreas microsomes)) (UniProt P38377); test: SEC

Substance: canine ribosomes (nontranslating 80S ribosomes) (complex)
fold defect in ribosome binding against undigested PK-RM [1]: > 10 fold
fold lower affinity than the sites of undigested PK-RM [1]: < 2 fold
percent of the high affinity ribosome binding sites of intact PK-RM [2]: 5%
fold lower affinity than the sites of undigested PK-RM [3]: < 2 fold
fold fewer ribosome binding sites than Th2-PK-RM [4]: 3 fold
fold lower affinity than the sites of undigested PK-RM [5]: < 2 fold
fold reduction of ribosome binding against undigested PK-RM [5]: 3 fold

Substance: ribosome-nascent chain complex bearing ffLuc77
fold reduction of RNC binding relative to intact microsomes [6]: 3.5 fold

fold less RNCs bound than undigested PK-RM [6]: 2.7 fold
percent of the bound RNCs insensitive to high salt extraction [6]: 80%
fold decrease in RNC binding against undigested PK-RM [7]: 2 fold
fold less RNCs bound than undigested PK-RM [8]: 5 fold
Substance: ribosome-nascent chain complex bearing pPL86 (from UniProt P01239 1-86)
